Sequences and labels used below:
B1: AHBP-1b (full-length, two-hybrid prey in pJG4-5) (other)
chain: MADTSPRTDVSTDDDTDHPDLGSEGALVNTAASDSSDRSKGKMDQKTLRRLAQNREAARKSRLRKKAYVQQLENSRLKLTQLEQELQRARQQGVFISGTGDQAHSTGGNGALAFDAEHSRWLEEKNKQMNELRSALNAHAGDSELRIIVDGVMAHYEELFRIKSNAAKNDVFHLLSGMWKTPAERCFLWLGGFRSSELLKLLANQLEPMTERQLMGINNLQQTSQQAEDALSQGMESLQQSLADTLSSGTLGSSSSGNVASYMGQMAMAMGKLGTLEGFIRQADNLRLQTLQQMIRVLTTRQSARALLAIHDYFSRLRALSSLWLARPRE

In assay [1] the target is full-length A. thaliana NPR1 (two-hybrid bait in pEG202) (Arabidopsis thaliana) (UniProt P93002). Put plainly: yeast two-hybrid, β-galactosidase reporter.
For assay [2], the target named is full-length tomato NPR1 homolog (tomato). Put plainly: yeast two-hybrid, β-galactosidase reporter.
Assay [3] concerns the target NPR1 178-593 (pEGNPR1178-593) (Arabidopsis thaliana) (UniProt P93002). Put plainly: yeast two-hybrid, β-galactosidase reporter.
Assay [4] deals with NPR1 1-432 (pEGNPR11-432) (Arabidopsis thaliana) (UniProt P93002). The assay is described as follows: yeast two-hybrid, β-galactosidase reporter.
The target of the next assay is npr1-1 mutant NPR1 bait (Arabidopsis thaliana, UniProt P93002). The assay is described as follows: yeast two-hybrid, β-galactosidase activity.
In the next assay the target is npr1-2 mutant NPR1 bait (Arabidopsis thaliana, UniProt P93002). Put plainly: yeast two-hybrid, β-galactosidase activity.
Assay [5] concerns the target B1. The assay is described as follows: yeast two-hybrid, β-galactosidase activity.

From patent US6137031, “DNA binding proteins that interact with NPR1” (Duke University, dated 2000) come the findings set out here.

Molecule “OBF5 (full-length, two-hybrid prey in pJG4-5) (from UniProt Q39163)” showed a units of β-galactosidase activity in assay [1] of 7.6 units.

With NIF1 (NPR-1-Interacting Factor 1), the units of β-galactosidase activity in assay [2] worked out at 1290 units.

As to B1, the units of β-galactosidase activity came to 17.6 units in assay [3], 673 units in assay [1] and 522 units in assay [4]. Besides, the binding result with npr1-1 mutant NPR1 bait and with npr1-2 mutant NPR1 bait was “no binding” throughout.

B2: TGA6 (full-length, two-hybrid prey in pJG4-5) (other)
chain: MADTSSRTDVSTDGDTDHRDLGSDRGHMHAAASDSSDRSKDKLDQKTLRRLAQNREAARKSRLRKKAYVQQLENSRLKLTQLEQELQRARQQGVFISSSGDQAHSTGGNGALAFDAEHSRWLEEKNRQMNELRSALNAHAGDTELRIIVDGVMAHYEELFRIKSNAAKNDVFHLLSGMWKTPAERCFLWLGGFRSSELLKLLANQLEPMTERQVMGINSLQQTSQQAEDALSQGMESLQQSLADTLSSGTLGSSSSDNVASYMGQMAMAMGQLGTLEGFIRQADNLRLQTLQQMLRVLTTRQSARALLAIHDYSSRLRALSSLWLARPRE
Take B2: the units of β-galactosidase activity in assay [1] turned out to be 372 units. In addition, the binding result with npr1-1 mutant NPR1 bait and in the assay with npr1-2 mutant NPR1 bait was “no binding” in each case.

B3: NPR1 1-177 (pEGNPR11-177) (other)
chain: MDTTIDGFADSYEISSTSFVATDNTDSSIVYLAAEQVLTGPDVSALQLLSNSFESVFDSPDDFYSDAKLVLSDGREVSFHRCVLSARSSFFKSALAAAKKEKDSNNTAAVKLELKEIAKDYEVGFDSVVTVLAYVYSSRVRPPPKGVSECADENCCHVACRPAVDFMLEVLYLAFIF
Consider B3, for which the binding result in assay [5] is given as “no binding”.
